The results in this text go back to US20170189510A1.

A value given as a limit tells only on which side of the number the result lay.

The assay has as its target HLA-A*24 (human). As to the kind of experiment: UV-ligand exchange, anti-b2m ELISA. A general note: ELISA stands for enzyme-linked immunosorbent assay.
Take IYTMIYRNL [peptide SEQ ID No 210 …]: the peptide exchange yield was greater than 75%.

QYLENLEKL [peptide SEQ ID No 224 …] returned a peptide exchange yield of 50 to 75%.

Regarding IFIEVFSHF [peptide SEQ ID No 178 …], the peptide exchange yield lay in the range of 50 to 75%.

For TYIKPISKL [peptide SEQ ID No 273 …], the peptide exchange yield was 50 to 75%.

KFVDSTFYL [peptide SEQ ID No 282 …]: the peptide exchange yield is greater than 75%.

Take TYTTVPRVAF [peptide SEQ ID No 172 …]: the peptide exchange yield is greater than 75%.

In turn, EYPLVINTL [peptide SEQ ID No 219 …] displayed a peptide exchange yield of 50 to 75%.

For the molecule KYIPYKYVI [peptide SEQ ID No 223 …], the peptide exchange yield was in the range of 50 to 75%.

For the molecule VFQNFPLLF [peptide SEQ ID No 184 …], the peptide exchange yield was greater than 75%.

As to IYKVGAPTI [peptide SEQ ID No 185 …], the peptide exchange yield lay in the range of 50 to 75%.

QYSSVFKSL [peptide SEQ ID No 216 …] yielded a peptide exchange yield greater than 75%.

Regarding KYTSWYVAL [peptide SEQ ID No 228 …], the peptide exchange yield was greater than 75%.

VFTSTARAF [peptide SEQ ID No 183 …] registered a peptide exchange yield of 50 to 75%.

On to TYLRDQHFL [peptide SEQ ID No 187 …], for which the peptide exchange yield was greater than 75%.

With TYIESASEL [peptide SEQ ID No 279 …], the peptide exchange yield lay in the range of 50 to 75%.

In turn, EFGSLHLEFL [peptide SEQ ID No 194 …] came in with a peptide exchange yield of less than 20%.

VYGFQWRHF [peptide SEQ ID No 276 …]: the peptide exchange yield is greater than 75%.

Take RFHPTPLLL [peptide SEQ ID No 193 …]: the peptide exchange yield was greater than 75%.

EYQENFLSF [peptide SEQ ID No 206 …]: the peptide exchange yield lay within 50 to 75%.

In turn, FYSRLLQKF [peptide SEQ ID No 203 …] yielded a peptide exchange yield of 50 to 75%.

Turning to SYALLTYMI [peptide SEQ ID No 192 …], the peptide exchange yield was greater than 75%.

On to FFPPTRQMGLLF [peptide SEQ ID No 217 …], for which the peptide exchange yield is greater than 75%.

For the molecule IFLDYEAGTLSF [peptide SEQ ID No 227 …], the peptide exchange yield is greater than 75%.

Turning to RYPDNLKHLYL [peptide SEQ ID No 280 …], the peptide exchange yield is greater than 75%.

KYMVYPQTF [peptide SEQ ID No 267 …]: the peptide exchange yield was greater than 75%.

Take LYHDIFSRL [peptide SEQ ID No 271 …]: the peptide exchange yield was greater than 75%.

In turn, TYTQDFNKF [peptide SEQ ID No 208 …] displayed a peptide exchange yield of 50 to 75%.

The molecule AYLHSHALI [peptide SEQ ID No 274 …] yielded a peptide exchange yield greater than 75%.

In turn, MYDSYWRQF [peptide SEQ ID No 179 …] gave a peptide exchange yield greater than 75%.

As for YYVYIMNHL [peptide SEQ ID No 225 …], the peptide exchange yield was 50 to 75%.

Molecule VHIPEVYLI [peptide SEQ ID No 205 …] yielded a peptide exchange yield of 50 to 75%.

Take LYLKLWNLI [peptide SEQ ID No 214 …]: the peptide exchange yield fell in the range of 50 to 75%.

Molecule YFDKVVTL [peptide SEQ ID No 215 YFDKVVTL] registered a peptide exchange yield of 20 to 49%.

Consider LYLDKATLI [peptide SEQ ID No 198 …], for which the peptide exchange yield fell in the range of 50 to 75%.

Regarding VYRDETGELF [peptide SEQ ID No 226 …], the peptide exchange yield lay within 50 to 75%.

For EYINQGDLHEF [peptide SEQ ID No 275 …], the peptide exchange yield fell in the range of 50 to 75%.

Molecule RYFKGLVF [peptide SEQ ID No 188 RYFKGLVF] came in with a peptide exchange yield of 50 to 75%.

Molecule RYSTGLAGNLL [peptide SEQ ID No 221 …] gave a peptide exchange yield of 50 to 75%.

With LYLDIINLF [peptide SEQ ID No 181 …], the peptide exchange yield was greater than 75%.

YYLEVGKTLI [peptide SEQ ID No 211 …] yielded a peptide exchange yield greater than 75%.

VFKASKITF [peptide SEQ ID No 191 …] showed a peptide exchange yield of 50 to 75%.

The molecule VYPWLGALL [peptide SEQ ID No 177 …] returned a peptide exchange yield greater than 75%.

In turn, IYDDSFIRPVTF [peptide SEQ ID No 180 …] gave a peptide exchange yield of 50 to 75%.

GFFIFNERF [peptide SEQ ID No 190 …] gave a peptide exchange yield of 50 to 75%.

Consider RYISDQLFTNF [peptide SEQ ID No 278 …], for which the peptide exchange yield was greater than 75%.

WYVNGVNYF [peptide SEQ ID No 189 …]: the peptide exchange yield was in the range of 20 to 49%.

For IYQLDTASI [peptide SEQ ID No 182 …], the peptide exchange yield fell in the range of 50 to 75%.

Molecule IFPQFLYQF [peptide SEQ ID No 186 …] came in with a peptide exchange yield greater than 75%.

The molecule QYLQDAYSF [peptide SEQ ID No 272 …] came in with a peptide exchange yield greater than 75%.
